Columns and labels:
[1] = biological target: LAP-TGFβ1 overexpressed on cells (过表达LAP-TGFβ1的CHO细胞) (UniProt P01137 30-390, limits assumed); test: cell-based or functional assay
[2] = biological target: LAP-TGFβ1抗原 (coated antigen) (UniProt P01137 30-390, limits assumed); test: competition ELISA on coated LAP-TGFβ1; competitor biotin-labelled 28G11 at 1 μg/ml
Chain of LAP-TGFβ1抗原 (coated antigen) (P01137 30-390 limits assumed): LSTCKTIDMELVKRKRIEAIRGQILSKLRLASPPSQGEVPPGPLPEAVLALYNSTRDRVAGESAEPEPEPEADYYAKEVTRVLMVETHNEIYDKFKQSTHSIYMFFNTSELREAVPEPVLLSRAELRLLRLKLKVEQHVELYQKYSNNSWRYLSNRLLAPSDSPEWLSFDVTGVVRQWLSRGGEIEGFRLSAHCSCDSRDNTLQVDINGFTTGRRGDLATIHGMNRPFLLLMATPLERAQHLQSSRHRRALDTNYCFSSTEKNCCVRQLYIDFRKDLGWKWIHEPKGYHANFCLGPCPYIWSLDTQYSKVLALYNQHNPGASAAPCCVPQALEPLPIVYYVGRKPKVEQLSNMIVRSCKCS

Chain of LAP-TGFβ1 overexpressed on cells (过表达LAP-TGFβ1的CHO细胞) (P01137 30-390 limits assumed): as above

Binder	IC50(μg/ml), 抑制细胞表面TGFβ1的释放 (PAI-LUC Mv.1.lu reporter cells, luciferase) [1] [µg/mL]	IC50 [2] [µg/mL]
抗LAP单克隆抗体 A-1 (全抗, mouse IgG2a / mouse Ck) (antibody, V domains shown, Full antibody made in HEK293E from vector pTSE; also called A-1抗体) VH: EVQLEQSGPELKKPGETVKISCKASGYTFTSYGMNWVKQAPGKALKWMGWINTYTGEPTYADDFKGRFAYSLEATANTAYLQIYNLKNEDTATYFCARSGRYTRPLYYIMDFWGQGTSVTVSS VL: not shown	0.741	0.0972
抗LAP单克隆抗体 A-4 (全抗, mouse IgG2a / mouse Ck) (antibody, V domains shown, Full antibody made in HEK293E from vector pTSE) VH: EVKLQESGPGLVAPSQSLSITCTVSGFSLTTYGVSWVRQPPGKGLEWLGIIWGDGTTIYQSGLISRLSISKDDSKSQVFLKLSSLQTDDTATYYCAKHYFVMDYWGQGTSVTVSS VL: DIVLTQSPSSLAVSAGEKVTMNCKSSQSLLNSRIRKNYLAWYQQKPGQSPKLLIYWASTRESGVPDRFTGSGSGTDFTLTISSVQAEDLAVYYCKQSYNLWTFGGGTKLEIKA	–	0.00805
抗LAP单克隆抗体 A-3 (全抗, mouse IgG2a / mouse Ck) (antibody, V domains shown, Full antibody made in HEK293E from vector pTSE) VH: EVKLQESGAELVMPGASVKMSCKASGYTFTDYWMHWVKQRPGQGLEWIGAIDTSDSYTSYNQKFKGKATLTVDESSSTAYMQLSSLTSEDSAVYYCARKALSGYFDVWGAGTTVTVSS VL: DIVLTQTPSSLSASLGGKVTITCKASQDIYKYIAWYQHKPGKGPRLLIHYTSTLQPGIPSRFSGSGSGRDYSFSISNLEPEDIATYYCLQYDNLRTFGGGTKLEIKA	–	0.00695
抗LAP单克隆抗体 A-2 (全抗, mouse IgG2a / mouse Ck) (antibody, V domains shown, Full antibody made in HEK293E from vector pTSE) VH: EVQLEESGAELVRSGASVKLSCTASGFNFNDYYMHWVKQRPEQGLEWIGWIDPENGDTEYAPKFQVKATMTADTSSNTAYLHLSSLASEDTAVYYCNTPTEDMDYWGQGTSVTVSS VL: DIVMTQSPSSLAVSAGEKVTMSCKSSQSLFNSRTRKNYLAWYQQKPGQSPKLLIYWASTRGSGVPDRFTGSGSGTDFTLTISSVQAEDLAVYYCKQSYNLLTFGAGTKLELKA	–	0.0764

Now from value to binder:

IC50(μg/ml), 抑制细胞表面TGFβ1的释放 (PAI-LUC Mv.1.lu reporter cells, luciferase) [1] [µg/mL]	IC50 [2] [µg/mL]	Binder
1.69	0.0526	抗LAP单克隆抗体 A-5 (全抗, mouse IgG2a / mouse Ck) (antibody, V domains shown, Full antibody made in HEK293E from vector pTSE) VH: EVQLQQSGAVLVRPGDSVKLSCKASGYSFTRSWINWVKQRPGQGLEWIGNIYPSDSYTNYNQKFKDKATLTVDKSSSTAYMQLRSPTSEDSAVYYCTNYYLYYFDYWGQGTTLTVSS VL: DIVLTQSPSSLAVSTGEKVTMSCKSSQSLLNSRTRKSYLAWYQQKPGQSPKLLIYWTSIRESGVPDRFTGNGSGTDFTLTISSVQAEDLAVYYCKQSYNLFTFGGGTKLEMKR
–	0.0557	抗LAP单克隆抗体 A-6 (全抗, mouse IgG2a / mouse Ck) (antibody, V domains shown, Full antibody made in HEK293E from vector pTSE) VH: QVKLQESGPELVKPGASVKISCKASGYTFTDYNMHWVKQSHGKSLEWIGYFYPYNGGTGYKQKFKSKATLTVDNSSSTAYMELRSLTSEDSAVYYCARNHYYYYAMDYWGQGTSVTVSS VL: DIVMTQTPSSLAVSAGEKVTMSCKSSQSLLNSRTRKNYLAWYQQKPGQSPKLLIYWASTRESGVPDRFTGSGSGTDFTLTISSVQAEDLAVYYCKQSYNLPWTFGGGTKLEIKA
